Earlier results, collected in publication PMC3334866.

Biological target: Vinculin D1 (UniProt P18206)
Chain of UniProt P18206 (P18206 1-258): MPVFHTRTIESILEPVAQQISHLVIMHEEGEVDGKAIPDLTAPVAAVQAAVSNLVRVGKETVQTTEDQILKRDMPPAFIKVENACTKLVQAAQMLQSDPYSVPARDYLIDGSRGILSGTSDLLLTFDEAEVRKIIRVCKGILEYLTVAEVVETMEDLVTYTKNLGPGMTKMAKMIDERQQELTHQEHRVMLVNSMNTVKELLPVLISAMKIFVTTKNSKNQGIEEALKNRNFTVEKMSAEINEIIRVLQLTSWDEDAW

## IpaA peptide (from UniProt P18010)
  Kd: < 1 nM
